From paper PMC6944378, “Ecotin, a microbial inhibitor of serine proteases, blocks multiple complement dependent and independent microbicidal activities of human serum” (PLoS Pathogens, 2019) come the findings set out here.

For assay [1], the target named is T1, MASP-1 catalytic fragment (CCP1-CCP2-SP) (UniProt P48740 299-699).
T1 construct: MASP-1, active catalytic fragment containing the CCP1-CCP2-SP domains
T1 sequence: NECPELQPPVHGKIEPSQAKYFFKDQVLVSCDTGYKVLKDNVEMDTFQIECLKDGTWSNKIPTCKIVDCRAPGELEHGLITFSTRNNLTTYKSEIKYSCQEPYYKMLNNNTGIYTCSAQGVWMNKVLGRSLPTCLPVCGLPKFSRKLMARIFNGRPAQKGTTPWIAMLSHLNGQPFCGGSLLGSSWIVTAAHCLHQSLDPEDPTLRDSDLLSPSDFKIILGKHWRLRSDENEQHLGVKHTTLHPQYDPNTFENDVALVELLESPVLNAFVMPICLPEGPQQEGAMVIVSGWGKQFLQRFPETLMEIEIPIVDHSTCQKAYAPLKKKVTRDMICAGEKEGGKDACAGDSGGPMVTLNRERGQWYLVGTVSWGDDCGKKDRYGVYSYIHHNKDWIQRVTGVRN
Kind of assay: […]; 20 mM HEPES, 145 mM NaCl, 5 mM CaCl2, 0.05% Triton X-100, pH 7.5; […]. The following applies: both partners purified.

In assay [2] the target is T2, MASP-2 catalytic fragment (CCP1-CCP2-SP) (UniProt O00187 298-686).
T2 construct: MASP-2, active catalytic fragment containing the CCP1-CCP2-SP domains
The description is as above. The following applies: both partners purified.

For assay [3], the target named is T3, MASP-3 catalytic fragment (CCP1-CCP2-SP) (UniProt P48740-2 299-728).
T3 sequence: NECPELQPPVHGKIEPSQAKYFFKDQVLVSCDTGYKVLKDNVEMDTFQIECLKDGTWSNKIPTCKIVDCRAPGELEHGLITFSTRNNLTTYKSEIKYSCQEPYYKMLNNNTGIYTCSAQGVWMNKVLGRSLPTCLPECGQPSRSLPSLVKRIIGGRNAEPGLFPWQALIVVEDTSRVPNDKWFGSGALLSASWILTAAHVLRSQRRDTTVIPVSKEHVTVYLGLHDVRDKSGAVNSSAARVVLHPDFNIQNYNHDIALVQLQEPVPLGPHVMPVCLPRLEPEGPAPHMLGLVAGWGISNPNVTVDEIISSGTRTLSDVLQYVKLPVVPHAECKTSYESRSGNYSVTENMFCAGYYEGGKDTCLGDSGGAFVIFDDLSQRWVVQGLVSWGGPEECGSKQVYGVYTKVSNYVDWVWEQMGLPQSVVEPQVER
The description is as above. The following applies: both partners purified.

Assay [4] has as its target T3, MASP-3 catalytic fragment (CCP1-CCP2-SP). Description: cell-based or functional assay.
Assay [5] shares this target. Kind of assay: equilibrium enzyme inhibition titration (residual activity; Green and Work); tight-binding format: fixed MASP-3 incubated with increasing ecotin to equilibrium; 250 μM Z-L-Lys-SBzl + 40 μM Thiol Fluorescent Probe IV; 20 mM HEPES, 145 mM NaCl, 5 mM CaCl2, 0.05% Triton X-100, pH 7.5. The following applies: both partners purified.
The target in assay [6] is T4, C1s catalytic fragment (CCP1-CCP2-SP) (UniProt P09871 292-688).
T4 construct: C1s, active catalytic fragment containing the CCP1-CCP2-SP domains
T4 sequence: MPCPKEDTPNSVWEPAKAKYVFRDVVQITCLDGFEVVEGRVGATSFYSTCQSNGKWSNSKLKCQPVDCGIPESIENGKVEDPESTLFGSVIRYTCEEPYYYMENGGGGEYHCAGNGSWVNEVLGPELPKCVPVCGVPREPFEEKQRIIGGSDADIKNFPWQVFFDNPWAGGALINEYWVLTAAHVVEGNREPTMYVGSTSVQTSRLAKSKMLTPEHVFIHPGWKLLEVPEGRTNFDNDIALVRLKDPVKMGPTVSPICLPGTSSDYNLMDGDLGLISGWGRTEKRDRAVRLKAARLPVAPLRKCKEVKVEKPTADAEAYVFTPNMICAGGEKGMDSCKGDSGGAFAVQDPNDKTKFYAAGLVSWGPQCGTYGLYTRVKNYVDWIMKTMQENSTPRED
Description: equilibrium enzyme inhibition titration (residual activity; Green and Work); fixed protease incubated with increasing ecotin to equilibrium; 250 μM Z-Gly-Arg-SBzl + 500 μM DTNB; 20 mM HEPES, 145 mM NaCl, 5 mM CaCl2, 0.05% Triton X-100, pH 7.5; apparent KI corrected with a KM from the literature. The following applies: both partners purified.

Assay [7] has as its target T5, factor D (human, UniProt P00746 26-253).
T5 construct: the KI was measured on recombinant FD; that the recombinant FD was made from it is surmised; also called FD; recombinant FD
Kind of assay: equilibrium enzyme inhibition titration (residual activity; Green and Work); fixed protease incubated with increasing inhibitor to equilibrium; free enzyme read with 250 μM Z-L-Lys-SBzl + 500 μM DTNB; 20 mM HEPES, 145 mM NaCl, 5 mM CaCl2, 0.05% Triton X-100, pH 7.5; apparent KI corrected with KM where marked [a]. The following applies: both partners purified.

Assay [8] deals with T1, MASP-1 catalytic fragment (CCP1-CCP2-SP). The description is as above. The following applies: both partners purified.
Assay [9] concerns the target T2, MASP-2 catalytic fragment (CCP1-CCP2-SP). The description is as above. The following applies: both partners purified.
In assay [10] the target is T3, MASP-3 catalytic fragment (CCP1-CCP2-SP). Described as above. The following applies: both partners purified.
Assay [11] has as its target T2, MASP-2 catalytic fragment (CCP1-CCP2-SP). Kind of assay: cell-based or functional assay.

T2 sequence (O00187 298-686): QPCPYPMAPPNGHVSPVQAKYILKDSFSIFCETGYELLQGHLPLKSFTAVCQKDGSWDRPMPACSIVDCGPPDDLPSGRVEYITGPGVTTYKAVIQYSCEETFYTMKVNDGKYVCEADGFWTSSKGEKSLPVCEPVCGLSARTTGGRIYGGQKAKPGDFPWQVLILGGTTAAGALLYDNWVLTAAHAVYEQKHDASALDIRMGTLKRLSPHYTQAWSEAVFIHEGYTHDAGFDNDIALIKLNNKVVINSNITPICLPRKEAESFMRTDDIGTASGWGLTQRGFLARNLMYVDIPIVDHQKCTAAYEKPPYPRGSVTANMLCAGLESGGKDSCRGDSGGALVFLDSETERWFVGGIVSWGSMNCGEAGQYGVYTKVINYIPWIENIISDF
T5 sequence (P00746 26-253): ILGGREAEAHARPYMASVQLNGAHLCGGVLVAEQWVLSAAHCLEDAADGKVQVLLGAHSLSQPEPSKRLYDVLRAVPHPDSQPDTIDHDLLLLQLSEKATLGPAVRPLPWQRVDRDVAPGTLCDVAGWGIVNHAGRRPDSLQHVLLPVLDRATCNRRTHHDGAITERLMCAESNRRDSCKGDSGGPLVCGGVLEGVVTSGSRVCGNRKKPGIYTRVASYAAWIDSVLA

B1: Y. pestis ecotin (natural protein)
chain: DTPTPLNQQQPLEKIAPYPQAEKGMSRQVIFLEPQKDESRFKVELLIGKTLNVDCNRHMLGGNLETRTLSGWGFDYLVMDKISQPASTMMACPEDSKPQVKFVTANLGDAAMQRYNSRLPIVVYVPQGVEVKYRIWEAGEDIRSAQVK
notes: also called Yersinia pestis ecotin ortholog
With B1, the Ki stood at 35000 nM in [1], 2.2 nM in assay [2] and 800 nM in assay [3].

B2: E. coli ecotin (natural protein)
chain: not shown
notes: also called recombinant E. coli ecotin
Take B2: the “half-life of Cy3-labelled pro-FD in NHS at 37 °C with 1 μM ecotin pre-incubated 10 min with the serum (3 hours without inhibitor)” value in assay [4] was 10 h. Besides, the Ki in assay [5] turned out to be 0.52 nM; in assay [6] it was 25200 ± 4450 nM; in assay [7] it was 4060 nM; in assay [8], 4200 nM; in assay [9] it was 11 nM.

B3: L. major ecotin (ISP2) (natural protein)
chain: MPAGMSDAAGKTLADFKAPYPEPTSQQRRYVIFLDPKGDSKELNDYKVELIPGRVEKVDGTNVYRMGGNIEERTIDGWGYPYYIVTLTTMSGTLMMPLGDAALKRPRFVAMNTKNLYRYNSRLPIVVYMPKDGELRYRIWTVKSTGSGTAKSTKAREM
notes: His6-tag cleaved off with TEV protease; also called Leishmania major ISP2 ortholog; not shown: His6, N-terminal, cleaved
In the case of B3, the Ki worked out at 2700 nM in assay [8], 8.8 nM in assay [9] and 4.1 nM in assay [10].

B4: P. aeruginosa ecotin (natural protein)
chain: not shown
notes: also called Pseudomonas aeruginosa ecotin ortholog
For the molecule B4, the “IC50 of mannan-triggered LP-driven C3-deposition ELISA in 2% NHS (the most efficient LP inhibitor of the four orthologs)” value in [11] lay within 84 to 190 nM. The Ki in assay [8] worked out at 34 nM; in assay [9] it was 76 nM; in [10], 9.6 nM.
